Reference: patent US20240083953A1 (University of Washington, published 2024)
Where two headings read alike, the source gives them in different places.

Key:
[1] = target: DSG2 on human cells (HeLa, T84) (human) (UniProt Q14126); assay: cell-based or functional assay
[2] = target: DSG2 on human cells (HeLa, T84) (human) (UniProt Q14126); assay: competition with 3H-labelled Ad3 virus for attachment to HeLa cells
[3] = target: T1, DSG2 on human cells (HeLa, T84) (human, UniProt Q14126 50-1118); assay: cell-based or functional assay
T1 sequence: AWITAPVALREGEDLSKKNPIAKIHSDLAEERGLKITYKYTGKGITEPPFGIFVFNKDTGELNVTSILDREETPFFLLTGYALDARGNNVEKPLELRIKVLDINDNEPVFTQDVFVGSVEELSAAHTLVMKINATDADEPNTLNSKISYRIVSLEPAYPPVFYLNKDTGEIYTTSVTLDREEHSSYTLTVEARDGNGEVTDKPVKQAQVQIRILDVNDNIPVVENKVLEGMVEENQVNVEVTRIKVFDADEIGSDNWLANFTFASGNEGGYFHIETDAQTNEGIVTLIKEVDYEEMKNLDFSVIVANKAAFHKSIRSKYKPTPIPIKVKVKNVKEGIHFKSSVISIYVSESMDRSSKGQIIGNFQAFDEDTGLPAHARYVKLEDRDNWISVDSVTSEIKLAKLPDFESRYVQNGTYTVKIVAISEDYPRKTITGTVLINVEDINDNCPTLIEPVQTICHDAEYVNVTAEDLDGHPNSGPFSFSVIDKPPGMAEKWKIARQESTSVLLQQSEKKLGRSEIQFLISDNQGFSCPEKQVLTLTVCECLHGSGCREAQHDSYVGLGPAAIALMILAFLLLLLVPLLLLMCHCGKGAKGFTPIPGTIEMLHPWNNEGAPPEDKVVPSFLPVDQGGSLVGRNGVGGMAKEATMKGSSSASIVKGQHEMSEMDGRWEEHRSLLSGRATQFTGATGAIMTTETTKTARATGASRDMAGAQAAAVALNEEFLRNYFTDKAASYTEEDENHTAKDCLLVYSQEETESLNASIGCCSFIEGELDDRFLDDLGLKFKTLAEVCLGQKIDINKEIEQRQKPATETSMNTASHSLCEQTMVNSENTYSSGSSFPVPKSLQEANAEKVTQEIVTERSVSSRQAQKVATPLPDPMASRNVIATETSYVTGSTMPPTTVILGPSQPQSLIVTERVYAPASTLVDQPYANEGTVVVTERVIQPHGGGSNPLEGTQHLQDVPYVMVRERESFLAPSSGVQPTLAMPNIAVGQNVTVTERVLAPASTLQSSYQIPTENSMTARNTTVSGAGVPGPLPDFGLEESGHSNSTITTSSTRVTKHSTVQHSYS

[4] = target: T1, DSG2 on human cells (HeLa, T84); assay: cell-based or functional assay; remark: listed apart in the source
Soluble CD46 = target: T2, Soluble CD46 (UniProt P15529 35-343); assay: Western blot, soluble CD46 as probe, anti-CD46 mAb
T2 construct: also called sCD46
T2 sequence: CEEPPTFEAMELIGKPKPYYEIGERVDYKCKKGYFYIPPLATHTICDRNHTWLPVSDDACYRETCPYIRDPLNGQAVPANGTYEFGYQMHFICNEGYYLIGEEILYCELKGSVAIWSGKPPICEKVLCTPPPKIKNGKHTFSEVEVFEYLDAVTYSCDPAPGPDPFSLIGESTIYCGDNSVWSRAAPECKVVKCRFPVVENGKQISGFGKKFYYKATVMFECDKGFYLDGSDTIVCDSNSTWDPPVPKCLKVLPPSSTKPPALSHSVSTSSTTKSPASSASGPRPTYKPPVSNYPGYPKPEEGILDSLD

[5] = target: T3, Recombinant human DSG2 protein (desmoglein 2), soluble (human, UniProt Q14126 50-609); assay: Western blot of dimeric knob, soluble DSG2 as probe
T3 construct: also called soluble DSG2; soluble recombinant DSG2
T3 sequence: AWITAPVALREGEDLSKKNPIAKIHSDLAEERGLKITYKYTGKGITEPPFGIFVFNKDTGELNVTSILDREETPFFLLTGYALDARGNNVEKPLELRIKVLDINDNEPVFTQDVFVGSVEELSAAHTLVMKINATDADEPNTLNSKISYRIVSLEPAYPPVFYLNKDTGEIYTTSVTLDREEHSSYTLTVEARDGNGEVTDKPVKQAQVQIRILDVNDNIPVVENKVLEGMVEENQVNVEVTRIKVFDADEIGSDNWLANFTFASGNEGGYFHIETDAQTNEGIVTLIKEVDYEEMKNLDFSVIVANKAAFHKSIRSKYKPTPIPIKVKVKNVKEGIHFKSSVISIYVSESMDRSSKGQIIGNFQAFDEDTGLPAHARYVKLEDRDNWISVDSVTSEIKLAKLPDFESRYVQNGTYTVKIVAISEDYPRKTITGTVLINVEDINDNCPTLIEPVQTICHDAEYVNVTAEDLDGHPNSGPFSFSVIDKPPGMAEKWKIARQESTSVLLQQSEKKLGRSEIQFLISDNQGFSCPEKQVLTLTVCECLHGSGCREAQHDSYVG

[6] = target: T3, Recombinant human DSG2 protein …; assay: Western blot of the blotted knob protein probed with soluble human DSG2, anti-DSG2 mAb 6D8 and HRP-anti-mouse IgG
[7] = target: T1, DSG2 on human cells (HeLa, T84); assay: cell-based or functional assay; remark: listed apart in the source
[8] = target: T3, Recombinant human DSG2 protein …; assay: SPR, DSG2 immobilised; the filing's constants were got with the knobs without dimerization domain, so the value is set on V239D/noDD
[9] = target: T3, Recombinant human DSG2 protein …; assay: SPR, DSG2 immobilised; the filing's constants were got with the knobs without dimerization domain, so the value is set on Y250F/noDD

Dimeric Ad3 fiber knob mutant D261N, L296R (ligand)
Inhibition of infection in the presence of dimeric knob (JO-1 = 100%) [1]: 1.5% | Inhibition of attachment in the presence of dimeric knob (JO-1 = 100%) [2]: 20.1%

Dimeric Ad3 fiber knob mutant N186D, D261N, L296R (ligand)
Inhibition of infection in the presence of dimeric knob (JO-1 = 100%) [1]: 0% | Inhibition of attachment in the presence of dimeric knob (JO-1 = 100%) [2]: 18.5%

B1: JO-1 (dimeric wild-type Ad3 fiber knob) (ligand)
chain: MKVSALKEKVSALKEKVSALKEKVSALKEKVSALKEGSGGGSGGGSGGGSNSIALKNNTLWTGPKPEANCIIEYGKQNPDSKLTLILVKNGGIVNGYVTLMGASDYVNTLFKNKNVSINVELYFDATGHILPDSSSLKTDLELKYKQTADFSARGFMPSTTAYPFVLPNAGTHNENYIFGQCYYKASDGALFPLEVTVMLNKRLPDSRTSYVMTFLWSLNAGLAPETTQATLITSPFTFSYIREDD
notes: also called dimeric wt Ad3 fiber knob; dimeric wtAd3 knob
IC50 (read off the curve): inhibition of Ad3-GFP infection of HeLa cells, % GFP-positive cells [3]: ~5 µg/mL | IC50 (read off the curve): inhibition of Ad3-GFP infection of HeLa cells, MFI of GFP [4]: ~0.6 µg/mL | binding result (Soluble CD46): no binding

B2: Dimeric Ad3 fiber knob mutant N186D, D261N, L296R (ligand)
chain: MKVSALKEKVSALKEKVSALKEKVSALKEKVSALKEGSGGGSGGGSGGGSNSIALKNNTLWTGPKPEANCIIEYGKQNPDSKLTLILVKNGGIVNGYVTLMGASDYVNTLFKDKNVSINVELYFDATGHILPDSSSLKTDLELKYKQTADFSARGFMPSTTAYPFVLPNAGTHNENYIFGQCYYKASNGALFPLEVTVMLNKRLPDSRTSYVMTFLWSLNAGRAPETTQATLITSPFTFSYIREDD
notes: also called mutant with mutations in all three areas (N185, D261, L296)
binding result [5]: no binding

B3: Ad3-S/Kn (ligand)
chain: SIALKNNTLWTGPKPEANCIIEYGKQNPDSKLTLILVKNGGIVNGYVTLMGASDYVNTLFKNKNVSINVELYFDATGHILPDSSSLKTDLELKYKQTADFSARGFMPSTTAYPFVLPNAGTHNENYIFGQCYYKASDGALFPLEVTVMLNKRLPDSRTSYVMTFLWSLNAGLAPETTQATLITSPFTFSYIREDD
binding result (Soluble CD46): no binding | binding result [6]: no binding

B4: Ad3 fiber knob mutant V239D without dimerization domain (ligand)
chain: NKLCSKLGNGLTFDSSNSIALKNNTLWTGPKPEANCIIEYGKQNPDSKLTLILVKNGGIVNGYVTLMGASDYVNTLFKNKNVSINVELYFDATGHILPDSSSLKTDLELKYKQTADFSARGFMPSTTAYPFDLPNAGTHNENYIFGQCYYKASDGALFPLEVTVMLNKRLPDSRTSYVMTFLWSLNAGLAPETTQATLITSPFTFSYIREDD
notes: range 108-319; also called V239D/noDD; not shown: N-terminal 6-His tag of pQE30 and a Gly/Ser linker coded by primer P1
IC50 (read off the curve): inhibition of Ad3-GFP infection of HeLa cells, MFI of GFP [7]: ~4 µg/mL | Kd [8]: 24.9 nM

B5: Ad3 fiber knob mutant Y250F without dimerization domain (ligand)
chain: NKLCSKLGNGLTFDSSNSIALKNNTLWTGPKPEANCIIEYGKQNPDSKLTLILVKNGGIVNGYVTLMGASDYVNTLFKNKNVSINVELYFDATGHILPDSSSLKTDLELKYKQTADFSARGFMPSTTAYPFVLPNAGTHNENFIFGQCYYKASDGALFPLEVTVMLNKRLPDSRTSYVMTFLWSLNAGLAPETTQATLITSPFTFSYIREDD
notes: range 108-319; also called Y250F/noDD; not shown: N-terminal 6-His tag of pQE30 and a Gly/Ser linker coded by primer P1
Kd [9]: 11.4 nM

B6: Ad3-S6/Kn (ligand)
chain: NGVLSLKCVNPLTTASGSLQLKVGSGLTVDTTDGSLEENIKVNTPLTKSNHSINLPIGNGLQIEQNKLCSKLGNGLTFDSSNSIALKNNTLWTGPKPEANCIIEYGKQNPDSKLTLILVKNGGIVNGYVTLMGASDYVNTLFKNKNVSINVELYFDATGHILPDSSSLKTDLELKYKQTADFSARGFMPSTTAYPFVLPNAGTHNENYIFGQCYYKASDGALFPLEVTVMLNKRLPDSRTSYVMTFLWSLNAGLAPETTQATLITSPFTFSYIREDD
notes: also called Ad3 fiber knob with six shaft motifs
binding result (Soluble CD46): no binding
